Measured values: PMC5784169, “Repression of Akt3 gene transcription by the tumor suppressor RIZ1”

What was measured:
GST-RIZ1-Zf1-3 = target: T1, GST-RIZ1-Zf1-3 (UniProt Q13029 360-506); test: EMSA; abolished by 30-fold excess unlabeled probe; LightShift Chemiluminescent EMSA kit, native PAGE; buffer, salt, pH and temperature not stated; details: protein: recombinant; tags: N-terminal GST (pGEX-KG); label: 3' biotin; blunt
T1 sequence: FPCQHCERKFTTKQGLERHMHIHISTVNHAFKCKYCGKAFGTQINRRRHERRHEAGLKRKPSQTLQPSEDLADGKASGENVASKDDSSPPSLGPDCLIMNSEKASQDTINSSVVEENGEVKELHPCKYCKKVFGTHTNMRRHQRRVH

GST-RIZ1-Zf8 = target: T2, GST-RIZ1-Zf8 (UniProt Q13029 1455-1478); test: as above; details: protein: recombinant; tags: N-terminal GST (pGEX-KG); label: 3' biotin; blunt
T2 chain: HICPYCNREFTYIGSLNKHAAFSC

B1: mouse Akt3 promoter CpG146 probe (dsDNA)
DNA 1: GGGGAGGGGCCGTCTGCGCATGTGGCGGGAGTGCGGGCGA
DNA 2: TCGCCCGCACTCCCGCCACATGCGCAGACGGCCCCTCCCC
GST-RIZ1-Zf1-3
  binding result: binds
GST-RIZ1-Zf8
  binding result: binds
